Test results: patent publication US20230416396A1 (Regeneron, published 2023)

Tests used:
human 4-1BB on cells [1] = target: T1, human 4-1BB on cells (human, UniProt Q07011 24-255); assay: cell-based or functional assay
human 4-1BB on cells [2] = target: T1, human 4-1BB on cells; assay: cell-based or functional assay; remark: listed apart in the source
human 4-1BB on cells [3] = target: T1, human 4-1BB on cells; assay: cell-based or functional assay; remark: listed apart in the source
human 4-1BB on cells [4] = target: T1, human 4-1BB on cells; assay: cell-based or functional assay; remark: listed apart in the source
human 4-1BB on cells [5] = target: T1, human 4-1BB on cells; assay: flow cytometry on HEK293/h4-1BB cells, APC anti-human secondary
Procedure: (§1) The ability of the multispecific antigen binding molecules to bind cells was assessed using flow cytometry. Cell lines were chosen to determine the ability of both the anti-CD38 and anti-4-1BB arms to bind their targets. […] Binding was detected by using a labeled secondary antibody and measuring fluorescence on a flow cytometer.
HEK293 and HEK293/4-1BB cells were lifted with trypsin, washed and resuspended in stain buffer (2% FBS in PBS) and added to wells of a 96 well V-bottom plate (3×10⁵ cells/well). A 1:5, 9-point, dose titration of test antibodies was diluted in stain buffer and added to cells to a final concentration ranging from 1.3 pM to 100 nM (a “no antibody” control was included as the ninth point ([…]) labeled as “secondary only”). Cells and antibodies were incubated for 30 min on ice and then washed in stain buffer. Cells were resuspended in 2 ug/ml allophycocyanin (APC) conjugated goat-anti human secondary antibody and incubated for 30 min on ice. Cells were then washed and resuspended in viability dye (according to the manufacturer's protocol) and incubated for 30 min on ice. Cells were then washed with stain buffer and resuspended in 2% PFA for 30 min on ice. After washing, cells were filtered and analyzed by flow cytometry to determine the geometric mean fluorescence intensity (gMFI), which was subsequently plotted using GraphPad Prism software. EC₅₀ values of the antibodies were determined from a 4-parameter logistic equation over a 9-point dose response curve (including secondary only control).

[6] = target: T2, human CD38 endogenously expressed on MOLP8 cells (human, UniProt P28907 1-300); assay: flow cytometry on MOLP8 cells (endogenous hCD38), APC anti-human secondary
T2 construct: whole, on cells; also called hCD38
Procedure: as §1
HEK293 cells were lifted with trypsin, washed and resuspend in stain buffer (2% FBS in PBS). MOLP8 cells were washed and resuspended in stain buffer. Cells were added to wells of a 96 well V-bottom plate (3×10⁵ cells/well). A 1:4, 9-point, dose titration of test antibodies was diluted in stain buffer and added to cells to a final concentration ranging from 610 fM to 10 nM (a “no antibody” control was included as the ninth point (153fM), labeled as “secondary only”). Cells and antibodies were incubated for 30 min on ice and then washed in stain buffer. Cells were resuspended in 2 ug/ml allophycocyanin (APC) conjugated goat-anti human secondary antibody and incubated for 30 min on ice. Cells were then washed and resuspended in viability dye (according to the manufacturer's protocol) and incubated for 30 min on ice. Cells were then washed with stain buffer and resuspended in 2% PFA for 30 min on ice. After washing, cells were filtered and analyzed by flow cytometry to determine the geometric mean fluorescence intensity (gMFI), which was subsequently plotted using GraphPad Prism software. EC₅₀ values of the antibodies were determined from a 4-parameter logistic equation over a 9-point dose response curve (including secondary only control, representing the ninth point).

[7] = target: T3, human 4-1BB expressed with a C-terminal myc-myc-hexahistidine tag (human, UniProt Q07011 24-186); assay: SPR Biacore 8k, antibody captured by anti-human Fc, h4-1BB.mmH as analyte, 25 C
T3 construct: also called h4-1BB.mmH; REGN3584; not shown: C-terminal myc-myc-hexahistidine tag
Procedure: (§2) Equilibrium dissociation constants (KD values) for human 4-1BB expressed with a C-terminal myc-myc-hexahistidine tag (h4-1BB.mmH, REGN3584) or human 4-1BB expressed with a C-terminal murine Fc tag (h4-1BB.mFc, REGN3585) binding to purified anti-CD38×4-1BB 1+2 antibodies were determined using a real-time surface plasmon resonance biosensor using a Biacore 8k instrument. The CM5 Biacore sensor surface was derivatized by amine coupling with a monoclonal mouse anti-human Fc antibody (REGN2567). All Biacore binding studies were performed in a buffer composed of 0.01M HEPES pH 7.4, 0.15M NaCl, 3 mM EDTA, 0.05% v/v Surfactant P20 (HBS-EP running buffer). […] Antibody-reagent association was monitored for 5 minutes while dissociation in HBS-EP running buffer was monitored for 10 minutes. At the end of each cycle, the anti-CD38×4-1BB 1+2 antibody capture surface was regenerated using a 10 second injection of 20 mM phosphoric acid. All binding kinetics experiments were performed at 25° C.
(§3) Kinetic association (kₐ) and dissociation (kd) rate constants were determined by fitting the real-time sensorgrams to a 1:1 binding model using Cytiva Insight curve fitting software. Binding dissociation equilibrium constants (KD) and dissociative half-lives (t/2) were calculated from the kinetic rate constants as: […]

[8] = target: T4, human 4-1BB expressed with a C-terminal murine Fc tag (human, UniProt Q07011 24-186); assay: SPR Biacore 8k, antibody captured by anti-human Fc, h4-1BB.mFc as analyte, 25 C
T4 construct: also called h4-1BB.mFc; REGN3585; not shown: C-terminal murine Fc tag
Procedure: as §2, §3

[9] = target: T4, human 4-1BB expressed with a C-terminal …; assay: SPR Biacore 4000, h4-1BB.mFc captured by anti-mouse Fc, antibody as analyte, 25 C
Procedure: Equilibrium dissociation constants (KD values) for human 4-1BB expressed with a C-terminal murine Fc tag (h4-1BB.mFc, REGN3585) binding to purified anti-CD38×4-1BB 1+2 antibodies were determined using a real-time surface plasmon resonance biosensor using a Biacore 4000 instrument. […] All Biacore binding studies were performed in a buffer composed of 0.01M HEPES pH 7.4, 0.15M NaCl, 3 mM EDTA, 0.05% v/v Surfactant P20 (HBS-EP running buffer). Different concentrations of CD38×4-1BB 1+2 constructs prepared in HBS-EP running buffer (ranging from 100 to 6.25 nM in 4-fold serial dilutions) were injected over the h4-1BB.mFc (REGN3585) captured surface at a flow rate of 30 μL/minute. Antibody-reagent association was monitored for 5 minutes while dissociation in HBS-EP running buffer was monitored for 10 minutes. At the end of each cycle, the h4-1BB.mFc capture surface was regenerated using a 40 sec injection of 10 mM glycine, pH 1.5. All binding kinetics experiments were performed at 25° C.
as §3

T1 sequence (Q07011 24-255): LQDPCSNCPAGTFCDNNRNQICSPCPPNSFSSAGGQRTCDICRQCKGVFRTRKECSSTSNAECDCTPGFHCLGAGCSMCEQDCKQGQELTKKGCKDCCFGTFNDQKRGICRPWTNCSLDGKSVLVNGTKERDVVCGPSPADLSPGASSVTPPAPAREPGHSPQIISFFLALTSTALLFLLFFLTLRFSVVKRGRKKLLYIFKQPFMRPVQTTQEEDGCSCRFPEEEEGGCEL
T3 sequence (Q07011 24-186 limits assumed): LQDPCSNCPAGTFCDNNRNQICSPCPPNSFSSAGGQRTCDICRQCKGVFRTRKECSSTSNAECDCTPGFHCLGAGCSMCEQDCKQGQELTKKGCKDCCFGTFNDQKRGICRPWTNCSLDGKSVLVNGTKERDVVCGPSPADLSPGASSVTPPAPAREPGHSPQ
T4 sequence (Q07011 24-186 limits assumed): as above

B1: REGN7650 (bispecific antibody, human IgG4 S228P, kappa)
heavy 1: EVQLVESGGGLVQPGGSLRLPCAASGFTFSSYAMSWVRQAPGKGLEWVADISGSGGDTYYVDSVKGRFTISRDNSKNTLYLQMNSLRIEDTAVYYCAKGRWHWNYEGFDIWGQGTMVTVSSASTKGPSVFPLAPCSRSTSESTAALGCLVKDYFPEPVTVSWNSGALTSGVHTFPAVLQSSGLYSLSSVVTVPSSSLGTKTYTCNVDHKPSNTKVDKRVESKYGPPGGGGSGGGGSGGGGSQVQLVESGGDVVQPGRSLRLSCTASGFTFSSFGMHWVRQAPGKGLEWVTFLSYDGSYKYYADSVKGRFTISRDNSKNTLYLQMNSLRAEDTAIFYCARDWLDYWGQGTLVTVSSASTKGPSVFPLAPCSRSTSESTAALGCLVKDYFPEPVTVSWNSGALTSGVHTFPAVLQSSGLYSLSSVVTVPSSSLGTKTYTCNVDHKPSNTKVDKRVESKYGPPCPPCPAPPVAGPSVFLFPPKPKDTLMISRTPEVTCVVVDVSQEDPEVQFNWYVDGVEVHNAKTKPREEQFNSTYRVVSVLTVLHQDWLNGKEYKCKVSNKGLPSSIEKTISKAKGQPREPQVYTLPPSQEEMTKNQVSLTCLVKGFYPSDIAVEWESNGQPENNYKTTPPVLDSDGSFFLYSRLTVDKSRWQEGNVFSCSVMHEALHNRFTQKSLSLSPGK
heavy 2: EVQLVESGGGLVQPGRSLRLSCAASGFTFDDYAMHWVRQAPGKGLEWVSGISWKSDNIGYADSVKGRFTISRDNAKNSLYLQMNSLRAEDTALYYCAKALGGWKFDYYYGMDVWGQGTTVTVSSASTKGPSVFPLAPCSRSTSESTAALGCLVKDYFPEPVTVSWNSGALTSGVHTFPAVLQSSGLYSLSSVVTVPSSSLGTKTYTCNVDHKPSNTKVDKRVESKYGPPCPPCPAPPVAGPSVFLFPPKPKDTLMISRTPEVTCVVVDVSQEDPEVQFNWYVDGVEVHNAKTKPREEQFNSTYRVVSVLTVLHQDWLNGKEYKCKVSNKGLPSSIEKTISKAKGQPREPQVYTLPPSQEEMTKNQVSLTCLVKGFYPSDIAVEWESNGQPENNYKTTPPVLDSDGSFFLYSRLTVDKSRWQEGNVFSCSVMHEALHNHYTQKSLSLSLGK
light: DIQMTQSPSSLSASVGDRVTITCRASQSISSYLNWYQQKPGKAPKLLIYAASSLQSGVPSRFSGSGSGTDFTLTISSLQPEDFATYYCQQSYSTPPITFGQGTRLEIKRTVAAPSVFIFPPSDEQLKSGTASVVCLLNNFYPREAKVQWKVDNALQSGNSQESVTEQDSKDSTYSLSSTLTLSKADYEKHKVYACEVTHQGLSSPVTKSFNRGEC
notes: 1+2 format, hIgG4P-PVA; also called CD38x4-1BB (1 + 2); 26812P2 x 25898P2 (IN) + 35321P2 (OUT)
Human 4-1BB on cells [1]
  EC50 of IL-2 release, T cells + HEK293/CD20/CD38 + REGN1979: 0.014 nM
  EC50 of IL-2 release, T cells + MOLP-8 + REGN5458: 0.0317 nM
  MAX IL-2 release, T cells + HEK293/CD20 + REGN1979: 184 pg/mL
  MAX IL-2 release, T cells + HEK293/CD20/CD38 + IsoC: 10 pg/mL
  MAX IL-2 release, T cells + HEK293/CD20/CD38 + REGN1979: 2720 pg/mL
  MAX IL-2 release, T cells + MOLP-8 + IsoC: 288 pg/mL
  MAX IL-2 release, T cells + MOLP-8 + REGN5458: 553 pg/mL
Human 4-1BB on cells [2]
  EC50 of luciferase activity, HEK293/NFkB-Luc/h4-1BB reporter + OPM2: 0.0989 nM
  MAX luciferase activity, HEK293/NFkB-Luc/h4-1BB reporter + HEK293/CD20: 1.5e+06 RLU
  MAX luciferase activity, HEK293/NFkB-Luc/h4-1BB reporter + HEK293/CD20/CD38: 2.3e+06 RLU
  MAX luciferase activity, HEK293/NFkB-Luc/h4-1BB reporter + MOLP-8: 2.4e+06 RLU
  MAX luciferase activity, HEK293/NFkB-Luc/h4-1BB reporter + OPM2: 2e+06 RLU
Human 4-1BB on cells [3]
  EC50 of IL-2 release, T cells + NALM6 + Cemiplimab: 0.155 nM
  EC50 of IL-2 release, T cells + NALM6 + IgG4P: 0.179 nM
  EC50 of IL-2 release, T cells + NALM6/PD-L1 + Cemiplimab: 0.283 nM
  EC50 of IL-2 release, T cells + NALM6/PD-L1 + IgG4P: 0.228 nM
Human 4-1BB on cells [4]
  EC50 of IFNγ release, T cells + NALM-6 + Cemiplimab: 0.156 nM
Human 4-1BB on cells [5]
  EC50: 0.997 nM
  MAX gMFI: 1e+06 gMFI
[6]
  MAX gMFI: 140000 gMFI
[7]
  100 nM h4-1BB.mmH Bind (RU): 41.9 RU
  Kd: 20.4 nM
  koff: 0.00535 s⁻¹
  kon: 262000 M⁻¹ s⁻¹
  t½: 2.2 min
[8]
  100 nM h4-1BB.mFc Bind (RU): 152 RU
  Kd: 1.2 nM
  koff: 0.000122 s⁻¹
  kon: 102000 M⁻¹ s⁻¹
  t½: 1.58 h
[9]
  100 nM Ab Bind (RU): 266 RU
  Kd: 0.797 nM
  koff: 0.000169 s⁻¹
  kon: 212000 M⁻¹ s⁻¹
  t½: 1.14 h
